Results published in US20220135687A1 (NANJING LEGEND BIOTECH, published 2022).
Values belong to the binder of their own block, whether it stands above or below them.

What was measured:
[1] = target: T1, human PD-L1 expressed on CHO-K1 cells (Genscript, Cat #M00543) (human, UniProt Q9NZQ7 19-290); test: cell-based or functional assay
[2] = target: T1, human PD-L1 expressed on CHO-K1 cells …; test: FACS, CHO-K1/human PD-L1 cells
Description: (§1) PD-L1 stable cell line binding activity assessment of 12 mouse mAbs was carried out using FACS. CHO-K1 cells expressing human PD-L1 (Genscript, Cat #M00543) were dissociated from adherent culture flasks and mixed with varying concentrations of antibodies. The antibody and cells were incubated for 30 minutes at room temperature, washed three times with FACS buffer (PBS containing 1% BSA). PE-labeled goat anti-mouse IgG (minimal x-reactivity) secondary antibody (BioLegend, Cat #405307) was added and incubated at room temperature for 15 minutes. Cells were washed again with FACS buffer and analyzed by FACSCalibur (BD Bioscience, San Jose, Calif.) and Flowjo software. Data were analyzed with Prism 6 (GraphPad Software, San Diego, Calif.) using non-linear regression, and EC₅₀ values were calculated (FIGS. 2A-2L and Table 3).

[3] = target: T1, human PD-L1 expressed on CHO-K1 cells …; test: FACS on CHO-K1 cells expressing human PD-L1, PE-labeled goat anti-mouse IgG secondary antibody
Description: as §1

[4] = target: T2, His-tagged PD-L1 ECD protein (ACROBiosystems) (human, UniProt Q9NZQ7 19-238); test: SPR, mAb captured via anti-Fc, PD-L1-His analyte
T2 construct: Bought protein; also called PD-L1-His; PD-L1/His; not shown: His tag
T2 sequence (Q9NZQ7 19-238): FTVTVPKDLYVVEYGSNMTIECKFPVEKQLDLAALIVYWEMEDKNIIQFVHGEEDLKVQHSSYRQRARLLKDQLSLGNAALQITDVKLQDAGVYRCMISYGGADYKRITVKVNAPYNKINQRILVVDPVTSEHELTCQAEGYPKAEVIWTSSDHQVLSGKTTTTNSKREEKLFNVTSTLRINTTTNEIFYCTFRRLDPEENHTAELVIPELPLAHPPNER
Description: Briefly, capturing antibody (anti-mouse Fc antibody for the affinity measurement of mouse mAbs, or anti-human Fc antibody for the affinity measurement of chimeric and humanized mAbs, GE healthcare) was immobilized on a Biacore™ CM5 chip to approximately 7,000 RU using EDC-activated amine coupling chemistry. Antibody of interest (5 μg/ml) was captured for 60 seconds onto the sensorchip surface. His-tagged PD-L1 ECD protein (ACROBiosystems) was flowed over the sensorchip surface at a series concentrations. Flow rate was 30 μl/min in all experiments. Association and dissociation phases were 5 and 15 min, respectively. The chip was regenerated using Glycine/HCl pH 1.5. Captured antibody and antigen were removed between each cycle using 50 mM HCl in order to ensure a fresh binding surface for each concentration of antigen. The resulting sensorgrams were fit globally using a 1:1 binding model in order to calculate on- and off-rates (ka and kd, respectively), as well as affinities (KD).

[5] = target: T1, human PD-L1 expressed on CHO-K1 cells …; test: FACS competition vs biotin-PD-1-Fc on CHO-K1/human PD-L1 cells
Description: A series of diluted mouse mAbs (concentration starting from 900 nM, 3 fold dilution, 50 μl per well) were added afterwards. The mixture was incubated at 4° C. for 30 minutes, washed twice with wash buffer, followed by the addition of PEcy5/streptavidin (1 μg/ml, 150 μl/well). The plates were again incubated at 4° C. for 30 minutes before the cells in each well were analyzed by FACSCalibur (BD Bioscience, San Jose, Calif.) and Flowjo software.

T1 sequence (Q9NZQ7 19-290, one chain of several): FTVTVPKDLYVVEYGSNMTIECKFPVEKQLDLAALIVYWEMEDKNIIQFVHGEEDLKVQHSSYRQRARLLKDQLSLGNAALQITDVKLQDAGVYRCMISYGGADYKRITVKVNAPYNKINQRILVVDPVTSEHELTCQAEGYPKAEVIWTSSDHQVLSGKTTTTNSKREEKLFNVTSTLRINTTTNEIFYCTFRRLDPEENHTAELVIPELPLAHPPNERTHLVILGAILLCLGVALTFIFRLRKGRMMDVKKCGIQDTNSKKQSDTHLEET

EC50, PD-L1 cell-based luciferase reporter assay [1]: 2.27 nM | EC50 [2]: 0.62 nM | Top (best-fit value) [2]: 399 | EC50 (read off the curve) [3]: ~3 nM
B1: 18B7F4G8 (antibody, V domains shown)
VH: DVQLQESGPDLVKPSQSLSLTCTVTGYSITSGYTWHWIRQFPGNKLEWMGYIHYSGSTKYNPSLKSRFSITRDTSKNQFFLQLNSMTAEDTATYYCARNSLFASWGHGTLVTVSA
VL: DIVLTQSPASLAVSLGQRATISCRASESVDTYGDSFMHWFQQKPGQPPKLLIYRASNLESGIPARFSGSGSRTDFTLTINPVEADDVATYYCQQSNEAPYTFGGGTKLEIK
notes: Mouse mAb from hybridoma culture

EC50, PD-L1 cell-based luciferase reporter assay [1]: 4.45 nM | Kd [4]: 0.61 nM | koff [4]: 0.00019 s⁻¹ | kon [4]: 320000 M⁻¹ s⁻¹ | EC50 [2]: 3.73 nM | Top (best-fit value) [2]: 2020 | IC50 [5]: 1.27 nM
B2: 53C1F3D4 (antibody, V domains shown)
VH: QVQLQQSGNELARPGASVRLSCKASGYIFTGYGITWVRQRPGQGLEWIGEIFPRRVNTYYSEKFKGRATLTADISSSTAYMELRSLTSEDSAVYFCARDYDPYFALDYWGQGTSVTVSS
VL: DIVMTQSHKFMSTSVGDRVSITCKASQDVSTAVDWYQQKPGQSPKLLIYSASYRYTGVPDRFTGSGSGTAFTFTISGEQAEDLAVYYCQQHYSIPFTFGGGTKLEIK
notes: Mouse mAb from hybridoma culture; also called mouse 53C1F3D4
